# Measured values: IntAct's records for PubMed 10376594
# B1: Apoptotic protease-activating factor 1 (Homo sapiens), O14727 (parent)
# chain: MDAKARNCLLQHREALEKDIKTSYIMDHMISDGFLTISEEEKVRNEPTQQQRAAMLIKMILKKDNDSYVSFYNALLHEGYKDLAALLHDGIPVVSSSSGKDSVSGITSYVRTVLCEGGVPQRPVVFVTRKKLVNAIQQKLSKLKGEPGWVTIHGMAGCGKSVLAAEAVRDHSLLEGCFPGGVHWVSVGKQDKSGLLMKLQNLCTRLDQDESFSQRLPLNIEEAKDRLRILMLRKHPRSLLILDDVWDSWVLKAFDSQCQILLTTRDKSVTDSVMGPKYVVPVESSLGKEKGLEILSLFVNMKKADLPEQAHSIIKECKGSPLVVSLIGALLRDFPNRWEYYLKQLQNKQFKRIRKSSSYDYEALDEAMSISVEMLREDIKDYYTDLSILQKDVKVPTKVLCILWDMETEEVEDILQEFVNKSLLFCDRNGKSFRYYLHDLQVDFLTEKNCSQLQDLHKKIITQFQRYHQPHTLSPDQEDCMYWYNFLAYHMASAKMHKELCALMFSLDWIKAKTELVGPAHLIHEFVEYRHILDEKDCAVSENFQEFLSLNGHLLGRQPFPNIVQLGLCEPETSEVYQQAKLQAKQEVDNGMLYLEWINKKNITNLSRLVVRPHTDAVYHACFSEDGQRIASCGADKTLQVFKAETGEKLLEIKAHEDEVLCCAFSTDDRFIATCSVDKKVKIWNSMTGELVHTYDEHSEQVNCCHFTNSSHHLLLATGSSDCFLKLWDLNQKECRNTMFGHTNSVNHCRFSPDDKLLASCSADGTLKLWDATSANERKSINVKQFFLNLEDPQEDMEVIVKCCSWSADGARIMVAAKNKIFLFDIHTSGLLGEIHTGHHSTIQYCDFSPQNHLAVVALSQYCVELWNTDSRSKVADCRGHLSWVHGVMFSPDGSSFLTSSDDQTIRLWETKKVCKNSAVMLKQEVDVVFQENEVMVLAVDHIRRLQLINGRTGQIDYLTEAQVSCCCLSPHLQYIAFGDENGAIEILELVNNRIFQSRFQHKKTVWHIQFTADEKTLISSSDDAEIQVWNWQLDKCIFLRGHQETVKDFRLLKNSRLLSWSFDGTVKVWNIITGNKEKDFVCHQGTVLSCDISHDATKFSSTSADKTAKIWSFDLLLPLHELRGHNGCVRCSAFSVDSTLLATGDDNGEIRIWNVSNGELLHLCAPLSEEGAATHGGWVTDLCFSPDGKMLISAGGYIKWWNVVTGESSQTFYTNGTNLKKIHVSPDFKTYVTVDNLGILYILQTLE
# B2: Caspase-9 (Homo sapiens), P55211 (parent)
# chain: MDEADRRLLRRCRLRLVEELQVDQLWDALLSRELFRPHMIEDIQRAGSGSRRDQARQLIIDLETRGSQALPLFISCLEDTGQDMLASFLRTNRQAAKLSKPTLENLTPVVLRPEIRKPEVLRPETPRPVDIGSGGFGDVGALESLRGNADLAYILSMEPCGHCLIINNVNFCRESGLRTRTGSNIDCEKLRRRFSSLHFMVEVKGDLTAKKMVLALLELAQQDHGALDCCVVVILSHGCQASHLQFPGAVYGTDGCPVSVEKIVNIFNGTSCPSLGGKPKLFFIQACGGEQKDHGFEVASTSPEDESPGSNPEPDATPFQEGLRTFDQLDAISSLPTPSDIFVSYSTFPGFVSWRDPKSGSWYVETLDDIFEQWAHSEDLQSLLLRVANAVSVKGIYKQMPGCFNFLRKKLFFKTS
# Variants of: B1
# Details: with casp9_human CASP9, P55211
row,effect of a mutation on the interaction,Variant
1,disrupting interaction,E40A
2,decreasing interaction,S31A
3,disrupting interaction,D27A

# Variants of: B2
# Details: with apaf_human APAF1, O14727
row,Variant,effect of a mutation on the interaction
1,R11A,decreasing interaction
2,R56A,disrupting interaction

# Results, then the variant that gave them:
row,effect of a mutation on the interaction,Variant
1,disrupting interaction,R13A
2,decreasing interaction,R52A
